Experimental data: US20240360228A1 (BIOLEGEND, published 2024)

Tests used:
[1] = biological target: T1, human chemokine (C-C motif) receptor 8 (CCR8) (human, UniProt P51685 1-355); assay: flow cytometry blocking, PBMC CCR8+ CD4+ cells; competitor PE-AB10 (its MFI is read)
T1 construct: On human peripheral blood lymphocytes / PBMC (native) or on human CCR8 GFP-transfected Ba/F3 cells; also called hCCR8; human CCR8
Procedure: (§1) For blocking studies, 100 μL of the cell suspension were incubated with 10 μg purified isotype control, AB1, AB2, AB3, AB4, AB5, AB8, AB9, AB10, AB11, AB12, AB13, AB14, AB15, and Commercial ABI antibodies, or isotype control, as blocking agents.
(§2) After incubation with the blocking agent, the cells were incubated with 0.25 μg of the indicated PE-conjugated antibody plus anti-human CD4 APC or anti-human CD3 for another 15 minutes in the dark and then washed 2 times with Cell Staining Buffer, and acquired in a FACSCanto II flow cytometer (BD Biosciences); the data was analyzed using FCS Express (De Novo Software); MFI correspond to the CCR8+ CD4+ lymphocytes or CCR8+ CD3+ lymphocytes.
(§3) Percentage original MFI was calculated by dividing the MFI of samples blocked with AB1, AB2, AB3, AB4, AB5, AB6, AB7, AB8, AB9, AB10, AB11, AB12, AB13, AB14, AB15, and Commercial ABI antibodies, by the MFI of samples blocked with the corresponding isotype control. This value was subtracted from 100 to get a blocking percentage. The formula is shown below: […]

[2] = biological target: T1, human chemokine (C-C motif) receptor 8 …; assay: flow cytometry blocking, PBMC CCR8+ CD4+ cells; competitor PE-AB5 (its MFI is read)
Procedure: as §1, §2, §3

[3] = biological target: T1, human chemokine (C-C motif) receptor 8 …; assay: flow cytometry blocking, PBMC CCR8+ CD4+ cells; competitor PE-AB11 (its MFI is read)
Procedure: as §1, §2, §3

[4] = biological target: T1, human chemokine (C-C motif) receptor 8 …; assay: flow cytometry blocking, PBMC CCR8+ CD4+ cells; competitor PE-AB14 (its MFI is read)
Procedure: as §1, §2, §3

[5] = biological target: T1, human chemokine (C-C motif) receptor 8 …; assay: flow cytometry blocking, PBMC CCR8+ CD4+ cells; competitor PE-AB6 (its MFI is read)
Procedure: as §1, §2, §3

[6] = biological target: T1, human chemokine (C-C motif) receptor 8 …; assay: flow cytometry blocking, PBMC CCR8+ CD4+ cells; competitor PE-AB1 (its MFI is read)
Procedure: as §1, §2, §3

[7] = biological target: T1, human chemokine (C-C motif) receptor 8 …; assay: flow cytometry blocking, PBMC CCR8+ CD4+ cells; competitor PE-AB13 (its MFI is read)
Procedure: as §1, §2, §3

[8] = biological target: T1, human chemokine (C-C motif) receptor 8 …; assay: flow cytometry blocking, PBMC CCR8+ CD4+ cells; competitor PE-AB3 (its MFI is read)
Procedure: as §1, §2, §3

[9] = biological target: T1, human chemokine (C-C motif) receptor 8 …; assay: flow cytometry blocking, PBMC CCR8+ CD4+ cells; competitor PE-AB2 (its MFI is read)
Procedure: as §1, §2, §3

[10] = biological target: T1, human chemokine (C-C motif) receptor 8 …; assay: flow cytometry blocking, PBMC CCR8+ CD4+ cells; competitor PE-ABII (its MFI is read)
Procedure: as §1, §2, §3

[11] = biological target: T1, human chemokine (C-C motif) receptor 8 …; assay: flow cytometry blocking, PBMC CCR8+ CD4+ cells; competitor PE-AB12 (its MFI is read)
Procedure: as §1, §2, §3

[12] = biological target: T1, human chemokine (C-C motif) receptor 8 …; assay: cell-based or functional assay
[13] = biological target: T1, human chemokine (C-C motif) receptor 8 …; assay: flow cytometry blocking, PBMC CCR8+ CD4+ cells; competitor PE-AB15 (its MFI is read)
Procedure: as §1, §2, §3

[14] = biological target: T1, human chemokine (C-C motif) receptor 8 …; assay: flow cytometry blocking, PBMC CCR8+ CD4+ cells; competitor PE-AB4 (its MFI is read)
Procedure: as §1, §2, §3

T1 sequence (P51685 whole entry): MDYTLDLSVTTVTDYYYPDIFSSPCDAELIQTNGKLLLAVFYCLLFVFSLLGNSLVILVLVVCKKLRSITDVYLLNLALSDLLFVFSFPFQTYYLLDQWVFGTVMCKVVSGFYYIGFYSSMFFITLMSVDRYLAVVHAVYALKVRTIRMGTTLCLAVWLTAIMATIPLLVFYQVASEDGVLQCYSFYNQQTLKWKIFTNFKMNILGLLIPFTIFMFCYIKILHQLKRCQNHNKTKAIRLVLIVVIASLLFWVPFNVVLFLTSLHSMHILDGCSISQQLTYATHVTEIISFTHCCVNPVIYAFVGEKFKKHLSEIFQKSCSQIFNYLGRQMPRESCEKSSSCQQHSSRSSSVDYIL

Binder | % Blocking [1] [%] | MFI [1] | % Blocking [2] [%] | MFI [2] | % Blocking [3] [%] | MFI [3] | % Blocking [4] [%] | MFI [4] | % Blocking [5] [%] | MFI [5] | % Blocking [6] [%] | MFI [6] | % Blocking [7] [%] | MFI [7] | % Blocking [8] [%] | MFI [8] | % Blocking [9] [%] | MFI [9] | % Blocking [10] [%] | MFI [10] | also measured
AB13 (antibody, V domains shown, Hybridoma monoclonal; also called antibody 13; clone 13) VH: EVQLVETGGGLVQPKGSLKLSCAASGFTFNAYAMNWVRQAPGKGLEWVARIRTKSNNYATYYADSVKDRFTISRDDSQTMLYLQMNNLKTEDTAMYYCVRDRATVTTGRAMDYWGQGTSVTVSS VL: DIVMTQAAPSLPVTPGESVSISCRSSKSLLHSNGNTYLYWFLQRAGQSPQLLIYRMSNLASGVPDRFSGSGSGTAFTLRISRVEAEDVGVYYCMQHLEYPFTFGSGTKLEIK | -36.6 | 1380 | -35.7 | 1020 | 37.7 | 562 | -413 | 4550 | -30.7 | 1020 | -41.5 | 927 | 27.4 | 680 | -39.7 | 970 | -54.3 | 1030 | 12.2 | 972 | % Blocking [11]: -0.1%; MFI [11]: 977; % hCCR8-Ba/F3 - THP-1 complexes [12]: 1.16%; % Blocking [13]: -15.9%; MFI [13]: 919; % Blocking [14]: -42.8%; MFI [14]: 975
AB8 (antibody, V domains shown, Hybridoma monoclonal; also called antibody 8; clone 8) VH: AVQLVESGGGLVQPKESLKISCAASGFIFSNAAMYWVRQAPGKGLQWVARIRTKPKNYATYYIDSVKGRFTISRDDSKSMVYLQMDNLKTEDTAMYYCNTMGLTRAYYFDYWGQGVMVTVSS VL: DIQMTQSPSFLSASVGDRVTINCKASQNINRYLNWYQQKLGEAPKLLIYNANSLQTGIPSRFSGSGSGTDFTLTIRSLQPEDVATYFCLQHNSWPWTFGGGTKLELK | -81.3 | 1830 | -27.2 | 953 | 40.4 | 537 | 6.78 | 826 | -20.4 | 944 | -49.5 | 980 | 33.4 | 623 | -43.3 | 994 | -42.4 | 953 | 27 | 808 | % Blocking [11]: 20.8%; MFI [11]: 773; % hCCR8-Ba/F3 - THP-1 complexes [12]: 1.78%; % Blocking [13]: -56.6%; MFI [13]: 1240; % Blocking [14]: -40.9%; MFI [14]: 962
AB2 (antibody, V domains shown, Hybridoma monoclonal; also called antibody 2; clone 2) VH: QVQLKESGPGLVKPSETLSLTCTVSGFSLTSYHISWVRQPPGKGLEWMGVIWGDGSKTYNSALKSRLSISRDTSKSQVFLKMRSLKTEDTATYYCARGGDSGFAYWGQGTLVTVSS VL: DIQMTQSPASLSASLEEIVTITCQASQDIGNWLSWYQQKPGKSPQLLIYGTTNLADGVPSRFSGSRSGTQYSLKISRLQVEDIGIYYCLQAYSVPLTFGSGTKLEIK | -8.07 | 1090 | 36.7 | 475 | -7.68 | 971 | 2.39 | 865 | 45.9 | 424 | 13.5 | 567 | 8.25 | 859 | 42.4 | 399 | 26.7 | 491 | 0.77 | 1100 | % Blocking [11]: -9.94%; MFI [11]: 1070; % hCCR8-Ba/F3 - THP-1 complexes [12]: 0.48%; % Blocking [13]: -7.83%; MFI [13]: 855; % Blocking [14]: 16.2%; MFI [14]: 572
AB5 (antibody, V domains shown, Hybridoma monoclonal; also called antibody 5; clone 5) VH: QVQLKESGPGLVQPSQTLSLTCTVSGFSLTSYHVSWVRQPPGKGLEWMGVIWTGGSTTYNSLLKSRLSISRDISKSQVFLKMNSLQTEDTATYYCARGGTVVKGGFAYWGQGTLVTVSS VL: DIQMTQSPASLSASLEEIVTITCQASQDIGNRLSWYQQKPGKSPQLLIYGATSLADGVPSRFSGSRSGTQYSLKISRLQVEDIGIYYCLQAYSTPLTFGSGTKLEIK | -7.11 | 1080 | 44.9 | 413 | -11.2 | 1000 | -4.39 | 925 | 35.7 | 504 | 39.7 | 395 | -5.77 | 990 | 47.3 | 366 | 47.1 | 355 | -8.53 | 1200 | % Blocking [11]: -17.2%; MFI [11]: 1140; % hCCR8-Ba/F3 - THP-1 complexes [12]: 1.51%; % Blocking [13]: -6.62%; MFI [13]: 845; % Blocking [14]: -6.8%; MFI [14]: 729
